Two sequences from US9314532B2, “Drug delivery vehicle” (University of North Texas Health Science Center, priority 2012, dated 2016) can be followed below.

Data set [1] in a line: paclitaxel encapsulation efficiency into myristoyl peptide nanoparticles (3H-paclitaxel). As to conditions: after centrifugation at 5,000 RPM for 5 minutes. The format is physicochemical. How it is done: Paclitaxel encapsulation efficiency into myristoyl peptide nanoparticles based on measurements of 3H-paclitaxel is shown in FIG. 8. […] In order to clarify the preparations, the samples were centrifuged at 5,000 RPM for 5 minutes.

Data set [2] is described as follows: mRNA encapsulation, particle size. As to conditions: mRNA/phospholipid particles upon addition of the MYR-5A peptide. The data set is classed as physicochemical. The text has this: In an embodiment of the present invention, ˜2 kb mRNA was encapsulated to improve its functionality and bioavailability. mRNA was combined with phospholipid in the presence of detergent and particles of approximately 3 μm diameter were obtained. […] The smaller particle is suitable for efficient delivery of the mRNA to target cells and for therapeutic applications.

Ends that are not written are not given here.

“EKLKALLEKLLAKLKELL (also: myristoyl, place not given here) [compound 39877]”: the “initial amount of paclitaxel retained” value in data set [1] was found to be 60%.
In data set [2], “DWLKAFYDKVAEKLKEAFPDWAKAAYDKAAEKAKEAA (also: myristoyl, place not given here) [MYR-5A, control peptide]” yielded a particle size of approximately 500 nm.
